Laboratory results reported in FireProtDB.
Several values for one entry are separate records, joined by “and”; a condition that tells them apart may be missing. Identical values can stand only once.

Conditions: whole UniProt chain shown
[1] = Bacillus subtilis (strain 168), pH 6, 27 °C, Thermal, CD, sodium phosphate 50 mM, reversible: yes
[2] = Bacillus caldolyticus, pH 7, Thermal, CD, sodium cacodylate 100 mM, NaCl 2 M, reversible: yes
[3] = Bacillus caldolyticus, pH 7, Thermal, CD, sodium cacodylate 100 mM, reversible: yes
[4] = Bos taurus, pH 5.3, 5 °C, GdnHCl, CD, Sodium acetate 0.02 M, reversible: yes
[5] = Bacillus licheniformis (strain ATCC 14580 / DSM 13 / JCM 2505 / CCUG 7422 / NBRC 12200 / NCIMB 9375 / NCTC 10341 / NRRL NRS-1264 / Gibson 46…, pH 7, Thermal, CD, Hepes 10 mM, reversible: Yes
[6] = Bacillus amyloliquefaciens, pH 7.5, Thermal, fluorescence, Pipes 10 mM, transition: 2
[7] = Bos taurus, pH 2, Thermal, CD, KCl-HCl 0.1 M, reversible: yes
[8] = Bos taurus, pH 2, Thermal, CD, Sodium phosphate 0.2 M, reversible: yes
[9] = Bos taurus, pH 2, Thermal, DSC, KCl-HCl 0.1 M, reversible: yes
[10] = Bos taurus, pH 6.2, 25 °C, 2-Propanol, CD, Piperazine Unknown, NaCl 30 mM, transition: 2, reversible: Yes

B1: Chemotaxis protein CheY wild type, P24072 (protein)
chain: MAHRILIVDDAAFMRMMIKDILVKNGFEVVAEAENGAQAVEKYKEHSPDLVTMDITMPEMDGITALKEIKQIDAQARIIMCSAMGQQSMVIDAIQAGAKDFIVKPFQADRVLEAINKTLN
With B1 the “heat capacity change of unfolding” value [1] was 2.34 kcal/mol/K, the unfolding free energy [1] was 3.14 kcal/mol and the Tm (Bacillus subtilis (strain 168), pH 6, Thermal, CD, sodium phosphate 50 mM, reversible: yes) was 54.9 °C.

B2: Cold shock protein CspB wild type, P41016 (protein)
chain: MQRGKVKWFNNEKGYGFIEVEGGSDVFVHFTAIQGEGFKTLEEGQEVSFEIVQGNRGPQAANVVKL
In the case of B2, the unfolding free energy (Bacillus caldolyticus, pH 7, 60 °C, Thermal, CD, sodium cacodylate 100 mM, NaCl 2 M, reversible: yes) is reported as 3.37 kcal/mol, the unfolding free energy (Bacillus caldolyticus, pH 7, 60 °C, Thermal, CD, sodium cacodylate 100 mM, reversible: yes) is reported as 2.44 kcal/mol and the Tm [2] is reported as 84.4 °C. For the same protein, the “unfolding enthalpy (van 't Hoff)” value [2] was 61.4 kcal/mol, the Tm [3] was 76.9 °C and the “unfolding enthalpy (van 't Hoff)” value [3] was 58.6 kcal/mol.

B3: Acyl-CoA-binding protein wild type, P07107 (protein)
chain: MSQAEFDKAAEEVKHLKTKPADEEMLFIYSHYKQATVGDINTERPGMLDFKGKAKWDAWNELKGTSKEDAMKAYIDKVEELKKKYGI
In the case of B3, the denaturant m value [4] is reported as 2.7 kcal/mol/M, the “denaturant midpoint (higher = more stable)” value [4] is reported as 2.36 M and the unfolding free energy [4] is reported as 6.1 kcal/mol.

B4: Protein GrpE wild type, Q65H53 (protein)
chain: MAEEKQNEELNEQEELNETEAETAEAEQTAAEADAPAEETQTEMLEKQLKELQERLEEKENKLLRVQADFENYKRRARLDLEAAEKYRSQRIISDLLPALDNFERALQIDPDNEQTKSLLQGMEMVHRQILEALKNEGVEQIPSVGEQFDPNMHQAVMQVEDEAYESNAVVEELQKGYKLKDRVIRPSMVKVNQ
In the case of B4, the Tm [5] is reported as 52 °C and the “unfolding enthalpy (van 't Hoff)” value [5] is reported as 99.9 kcal/mol.

B5: Serine protease 1 wild type, P00760 (protein)
chain: MKTFIFLALLGAAVAFPVDDDDKIVGGYTCGANTVPYQVSLNSGYHFCGGSLINSQWVVSAAHCYKSGIQVRLGEDNINVVEGNEQFISASKSIVHPSYNSNTLNNDIMLIKLKSAASLNSRVASISLPTSCASAGTQCLISGWGNTKSSGTSYPDVLKCLKAPILSDSSCKSAYPGQITSNMFCAGYLEGGKDSCQGDSGGPVVCSGKLQGIVSWGSGCAQKNKPGVYTKVCNYVSWIKQTIASN
B5 showed an unfolding free energy (Bos taurus, pH 5.8, 25 °C, GdnHCl, Fluorescence, MES 0.1 M) of 10.9 kcal/mol.

B6: Subtilisin BPN' wild type, P00782 (protein)
chain: MRGKKVWISLLFALALIFTMAFGSTSSAQAAGKSNGEKKYIVGFKQTMSTMSAAKKKDVISEKGGKVQKQFKYVDAASATLNEKAVKELKKDPSVAYVEEDHVAHAYAQSVPYGVSQIKAPALHSQGYTGSNVKVAVIDSGIDSSHPDLKVAGGASMVPSETNPFQDNNSHGTHVAGTVAALNNSIGVLGVAPSASLYAVKVLGADGSGQYSWIINGIEWAIANNMDVINMSLGGPSGSAALKAAVDKAVASGVVVVAAAGNEGTSGSSSTVGYPGKYPSVIAVGAVDSSNQRASFSSVGPELDVMAPGVSIQSTLPGNKYGAYNGTSMASPHVAGAAALILSKHPNWTNTQVRSSLENTTTKLGDSFYYGKGLINVQAAAQ
With B6 the unfolding free energy (Bacillus amyloliquefaciens, pH 5, 20 °C, Thermal, DSC, Sodium acetate 100 mM, reversible: yes) was 2.1 kcal/mol, the Tm (Bacillus amyloliquefaciens, pH 7, Thermal, CD, KPO4 100 mM) was 65 °C and the Tm [6] was 53.9 °C and 56.8 °C. The “unfolding enthalpy (calorimetric)” value [6] was 55.8 kcal/mol and 56.7 kcal/mol, the Tm (Bacillus amyloliquefaciens, pH 8, Thermal, DSC, Tris-HCl 50 mM, CaCl2 10 mM, reversible: no) was 78.3 °C and the Tm (Bacillus amyloliquefaciens, pH 8, Thermal, DSC, Tris-HCl 50 mM, KCl 50 mM) was 58.9 °C.

B7: Beta-lactoglobulin wild type, P02754 (protein)
chain: MKCLLLALALTCGAQALIVTQTMKGLDIQKVAGTWYSLAMAASDISLLDAQSAPLRVYVEELKPTPEGDLEILLQKWENGECAQKKIIAEKTKIPAVFKIDALNENKVLVLDTDYKKYLLFCMENSAEPEQSLACQCLVRTPEVDDEALEKFDKALKALPMHIRLSFNPTQLEEQCHI
For B7, the Tm [7] was 78 °C, the “heat capacity change of unfolding” value [7] was 1.33 kcal/mol/K and the “unfolding enthalpy (van 't Hoff)” value [7] was 74.6 kcal/mol. The Tm [8] was 91 °C, the “heat capacity change of unfolding” value [8] was 1.35 kcal/mol/K and the “unfolding enthalpy (van 't Hoff)” value [8] was 88.8 kcal/mol. For the same protein, the Tm [9] was 77.8 °C, the “heat capacity change of unfolding” value [9] was 1.33 kcal/mol/K and the “unfolding enthalpy (calorimetric)” value [9] was 74.7 kcal/mol. The Tm (Bos taurus, pH 3, Thermal, DSC, phosphate 20 mM, reversible: yes) was 77 °C, the denaturant m value [10] was 0.9 kcal/mol/M and the “denaturant midpoint (higher = more stable)” value [10] was 4 M. The unfolding free energy [10] was 3.8 kcal/mol, the unfolding free energy (Bos taurus, pH 6.85, 25 °C, Urea, CD, Phosphate 0.01 M, chloride 0.2 M) was 6.99 kcal/mol and the unfolding free energy (Bos taurus, pH 6.85, 25 °C, Urea, CD, Phosphate 0.01 M, citrate 0.2 M) was 9.79 kcal/mol. The unfolding free energy (Bos taurus, pH 6.85, 25 °C, Urea, CD, Phosphate 0.01 M, phosphate 0.2 M) was 9.18 kcal/mol, the unfolding free energy (Bos taurus, pH 6.85, 25 °C, Urea, CD, Phosphate 0.01 M, sulfate 0.2 M) was 8.8 kcal/mol and the unfolding free energy (Bos taurus, pH 6.85, 25 °C, Urea, CD, Phosphate 0.01 M, tartrate 0.2 M) was 7.58 kcal/mol. The unfolding free energy (Bos taurus, pH 7.1, 30 °C, GdnHCl, CD, phosphate 0.11 M, NaCl 0.04 M) was 11.2 kcal/mol.
